From the supplement of paper PMC6755084

Tested on: F1*sub RNA substrate (template-directed ligation)
Experiment: fraction ligated after 30 min (ligated reads / total reads); higher = more ligase activity; sequences stand for … in GAGACCGCAACTGAAAAGTTGT…AGTTCTGCACGTAGAAGCAAAAGGC
Details: 42 °C
Procedure, shortened: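 Templates from an oligo pool were PCR-amplified, transcribed with T7 and gel-purified to give the ribozyme variants. Ligated and unligated products were separated on gel, reverse transcribed using barcoded primers, and read on a MiSeq. A quality filter of ≥20 was applied to core bases. Fraction ligated was taken as ligated reads as a share of all reads per variant.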

## TATCACTTGTCGTAAGACACTTTGGAGGTTA [3d2277]
  fraction ligated: 0.0104

## TATCACTTGTCGTAAGACACTTTGGAGGTTG [3d2278]
  fraction ligated: 0.00797

## TATCACTTGTCGTAAGACACTTTGGAGGTTGA [2d293]
  fraction ligated: 0.0113

## TATCACTTGTCGTAAGACACTTTGGATGGGTT [2d298]
  fraction ligated: 0.772

## TATCACTTGTCGTAAGACACTTTGGATGGTT [3d2281]
  fraction ligated: 0.024

## TATCACTTGTCGTAAGACACTTTGGATGGTTA [2d296]
  fraction ligated: 0.447

## TATCACTTGTCGTAAGACACTTTGGATGGTTG [2d297]
  fraction ligated: 0.531

## TATCACTTGTCGTAAGACACTTTGGGGGTTA [3d2271]
  fraction ligated: 0.0237

## TATCACTTGTCGTAAGACACTTTGGGGGTTG [3d2272]
  fraction ligated: 0.0105

## TATCACTTGTCGTAAGACACTTTGGGGGTTGA [2d289]
  fraction ligated: 0.0225

## TATCACTTGTCGTAAGACACTTTGGGGTTGA [3d2260]
  fraction ligated: 0.0415

## TATCACTTGTCGTAAGACACTTTGGTGGGTT [3d2275]
  fraction ligated: 0.011

## TATCACTTGTCGTAAGACACTTTGGTGGGTTA [2d291]
  fraction ligated: 0.018

## TATCACTTGTCGTAAGACACTTTGGTGGGTTG [2d292]
  fraction ligated: 0.0944

## TATCACTTGTCGTAAGACACTTTGGTGGTTA [3d2273]
  fraction ligated: 0.0182

## TATCACTTGTCGTAAGACACTTTGGTGGTTG [3d2274]
  fraction ligated: 0.0129

## TATCACTTGTCGTAAGACACTTTGGTGGTTGA [2d290]
  fraction ligated: 0.0232

## TATCACTTGTCGTAAGACACTTTGTGGGTTA [3d2262]
  fraction ligated: 0.00904

## TATCACTTGTCGTAAGACACTTTGTGGGTTG [3d2263]
  fraction ligated: 0.00738

## TATCACTTGTCGTAAGACACTTTGTGGGTTGA [2d284]
  fraction ligated: 0.0141

## TATCACTTGTCGTAAGACACTTTGTGGTTGA [3d2261]
  fraction ligated: 0.0088

## TATCACTTGTCGTAAGACACTTTTGGGTTGA [3d2255]
  fraction ligated: 0.0315

## TATCACTTGTCGTAAGACATGGATGGGTTGA [3d2207]
  fraction ligated: 0.808

## TATCACTTGTCGTAAGACATTGATGGGTTGA [3d2208]
  fraction ligated: 0.778

## TATCACTTGTCGTAAGACATTGGAGGGTTGA [3d2210]
  fraction ligated: 0.0593

## TATCACTTGTCGTAAGACATTGGATGGGTTA [3d2212]
  fraction ligated: 0.78

## TATCACTTGTCGTAAGACATTGGATGGGTTG [3d2213]
  fraction ligated: 0.797

## TATCACTTGTCGTAAGACATTGGATGGGTTGA [2d269]
  fraction ligated: 0.815

## TATCACTTGTCGTAAGACATTGGATGGTTGA [3d2211]
  fraction ligated: 0.0757

## TATCACTTGTCGTAAGACATTGGTGGGTTGA [3d2209]
  fraction ligated: 0.0429

## TATCACTTGTCGTAAGACATTTATGGGTTGA [3d2214]
  fraction ligated: 0.0203

## TATCACTTGTCGTAAGACATTTGAGGGTTGA [3d2216]
  fraction ligated: 0.00411

## TATCACTTGTCGTAAGACATTTGATGGGTTA [3d2218]
  fraction ligated: 0.0152

## TATCACTTGTCGTAAGACATTTGATGGGTTG [3d2219]
  fraction ligated: 0.098

## TATCACTTGTCGTAAGACATTTGATGGGTTGA [2d270]
  fraction ligated: 0.291

## TATCACTTGTCGTAAGACATTTGATGGTTGA [3d2217]
  fraction ligated: 0.00686

## TATCACTTGTCGTAAGACATTTGGAGGGTTA [3d2225]
  fraction ligated: 0.0022

## TATCACTTGTCGTAAGACATTTGGAGGGTTG [3d2226]
  fraction ligated: 0.00325

## TATCACTTGTCGTAAGACATTTGGAGGGTTGA [2d272]
  fraction ligated: 0.015

## TATCACTTGTCGTAAGACATTTGGAGGTTGA [3d2224]
  fraction ligated: 0.00439

## TATCACTTGTCGTAAGACATTTGGATGGGTT [3d2229]
  fraction ligated: 0.73

## TATCACTTGTCGTAAGACATTTGGATGGGTTA [2d274]
  fraction ligated: 0.806

## TATCACTTGTCGTAAGACATTTGGATGGGTTG [2d275]
  fraction ligated: 0.828

## TATCACTTGTCGTAAGACATTTGGATGGTTA [3d2227]
  fraction ligated: 0.0433

## TATCACTTGTCGTAAGACATTTGGATGGTTG [3d2228]
  fraction ligated: 0.0492

## TATCACTTGTCGTAAGACATTTGGATGGTTGA [2d273]
  fraction ligated: 0.121

## TATCACTTGTCGTAAGACATTTGGGGGTTGA [3d2220]
  fraction ligated: 0.0157

## TATCACTTGTCGTAAGACATTTGGTGGGTTA [3d2222]
  fraction ligated: 0.00331

## TATCACTTGTCGTAAGACATTTGGTGGGTTG [3d2223]
  fraction ligated: 0.0154

## TATCACTTGTCGTAAGACATTTGGTGGGTTGA [2d271]
  fraction ligated: 0.0311

## TATCACTTGTCGTAAGACATTTGGTGGTTGA [3d2221]
  fraction ligated: 0.0037

## TATCACTTGTCGTAAGACATTTGTGGGTTGA [3d2215]
  fraction ligated: 0.00941

## TATCACTTGTCGTAAGACCTGGATGGGTTGA [3d2183]
  fraction ligated: 0.757

## TATCACTTGTCGTAAGACCTTGATGGGTTGA [3d2184]
  fraction ligated: 0.766

## TATCACTTGTCGTAAGACCTTGGAGGGTTGA [3d2186]
  fraction ligated: 0.0676

## TATCACTTGTCGTAAGACCTTGGATGGGTTA [3d2188]
  fraction ligated: 0.771

## TATCACTTGTCGTAAGACCTTGGATGGGTTG [3d2189]
  fraction ligated: 0.79

## TATCACTTGTCGTAAGACCTTGGATGGGTTGA [2d262]
  fraction ligated: 0.791

## TATCACTTGTCGTAAGACCTTGGATGGTTGA [3d2187]
  fraction ligated: 0.127

## TATCACTTGTCGTAAGACCTTGGTGGGTTGA [3d2185]
  fraction ligated: 0.0725

## TATCACTTGTCGTAAGACCTTTATGGGTTGA [3d2190]
  fraction ligated: 0.11

## TATCACTTGTCGTAAGACCTTTGAGGGTTGA [3d2192]
  fraction ligated: 0.0254

## TATCACTTGTCGTAAGACCTTTGATGGGTTA [3d2194]
  fraction ligated: 0.0671

## TATCACTTGTCGTAAGACCTTTGATGGGTTG [3d2195]
  fraction ligated: 0.513

## TATCACTTGTCGTAAGACCTTTGATGGGTTGA [2d263]
  fraction ligated: 0.76

## TATCACTTGTCGTAAGACCTTTGATGGTTGA [3d2193]
  fraction ligated: 0.0397

## TATCACTTGTCGTAAGACCTTTGGAGGGTTA [3d2201]
  fraction ligated: 0.0991

## TATCACTTGTCGTAAGACCTTTGGAGGGTTG [3d2202]
  fraction ligated: 0.0402

## TATCACTTGTCGTAAGACCTTTGGAGGGTTGA [2d265]
  fraction ligated: 0.072

## TATCACTTGTCGTAAGACCTTTGGAGGTTGA [3d2200]
  fraction ligated: 0.049

## TATCACTTGTCGTAAGACCTTTGGATGGGTT [3d2205]
  fraction ligated: 0.744

## TATCACTTGTCGTAAGACCTTTGGATGGGTTA [2d267]
  fraction ligated: 0.788

## TATCACTTGTCGTAAGACCTTTGGATGGGTTG [2d268]
  fraction ligated: 0.828

## TATCACTTGTCGTAAGACCTTTGGATGGTTA [3d2203]
  fraction ligated: 0.127

## TATCACTTGTCGTAAGACCTTTGGATGGTTG [3d2204]
  fraction ligated: 0.139

## TATCACTTGTCGTAAGACCTTTGGATGGTTGA [2d266]
  fraction ligated: 0.285

## TATCACTTGTCGTAAGACCTTTGGGGGTTGA [3d2196]
  fraction ligated: 0.0519

## TATCACTTGTCGTAAGACCTTTGGTGGGTTA [3d2198]
  fraction ligated: 0.0357

## TATCACTTGTCGTAAGACCTTTGGTGGGTTG [3d2199]
  fraction ligated: 0.0351

## TATCACTTGTCGTAAGACCTTTGGTGGGTTGA [2d264]
  fraction ligated: 0.114

## TATCACTTGTCGTAAGACCTTTGGTGGTTGA [3d2197]
  fraction ligated: 0.0467

## TATCACTTGTCGTAAGACCTTTGTGGGTTGA [3d2191]
  fraction ligated: 0.0153

## TATCACTTGTCGTAAGACTTGGATGGGTTGA [3d2107]
  fraction ligated: 0.771

## TATCACTTGTCGTAAGACTTTGATGGGTTGA [3d2108]
  fraction ligated: 0.76

## TATCACTTGTCGTAAGACTTTGGAGGGTTGA [3d2110]
  fraction ligated: 0.0282

## TATCACTTGTCGTAAGACTTTGGATGGGTTA [3d2112]
  fraction ligated: 0.792

## TATCACTTGTCGTAAGACTTTGGATGGGTTG [3d2113]
  fraction ligated: 0.796

## TATCACTTGTCGTAAGACTTTGGATGGGTTGA [2d244]
  fraction ligated: 0.821

## TATCACTTGTCGTAAGACTTTGGATGGTTGA [3d2111]
  fraction ligated: 0.133

## TATCACTTGTCGTAAGACTTTGGTGGGTTGA [3d2109]
  fraction ligated: 0.0656

## TATCACTTGTCGTAAGATTTGGATGGGTTGA [3d2106]
  fraction ligated: 0.815

## TATCACTTGTCGTAAGCACTGGATGGGTTGA [3d2128]
  fraction ligated: 0.771

## TATCACTTGTCGTAAGCACTTGATGGGTTGA [3d2129]
  fraction ligated: 0.743

## TATCACTTGTCGTAAGCACTTGGAGGGTTGA [3d2131]
  fraction ligated: 0.072

## TATCACTTGTCGTAAGCACTTGGATGGGTTA [3d2133]
  fraction ligated: 0.565

## TATCACTTGTCGTAAGCACTTGGATGGGTTG [3d2134]
  fraction ligated: 0.76

## TATCACTTGTCGTAAGCACTTGGATGGGTTGA [2d247]
  fraction ligated: 0.756

## TATCACTTGTCGTAAGCACTTGGATGGTTGA [3d2132]
  fraction ligated: 0.108

## TATCACTTGTCGTAAGCACTTGGTGGGTTGA [3d2130]
  fraction ligated: 0.0887

## TATCACTTGTCGTAAGCACTTTATGGGTTGA [3d2135]
  fraction ligated: 0.134

## TATCACTTGTCGTAAGCACTTTGAGGGTTGA [3d2137]
  fraction ligated: 0.086

## TATCACTTGTCGTAAGCACTTTGATGGGTTA [3d2139]
  fraction ligated: 0.124

## TATCACTTGTCGTAAGCACTTTGATGGGTTG [3d2140]
  fraction ligated: 0.677

## TATCACTTGTCGTAAGCACTTTGATGGGTTGA [2d248]
  fraction ligated: 0.751

## TATCACTTGTCGTAAGCACTTTGATGGTTGA [3d2138]
  fraction ligated: 0.157

## TATCACTTGTCGTAAGCACTTTGGAGGGTTA [3d2146]
  fraction ligated: 0.134

## TATCACTTGTCGTAAGCACTTTGGAGGGTTG [3d2147]
  fraction ligated: 0.116

## TATCACTTGTCGTAAGCACTTTGGAGGGTTGA [2d250]
  fraction ligated: 0.157

## TATCACTTGTCGTAAGCACTTTGGAGGTTGA [3d2145]
  fraction ligated: 0.143

## TATCACTTGTCGTAAGCACTTTGGATGGGTT [3d2150]
  fraction ligated: 0.534

## TATCACTTGTCGTAAGCACTTTGGATGGGTTA [2d252]
  fraction ligated: 0.737
